{"source": "patent US20250283886A1", "binders": {"B1": {"name": "S. elongatus ClpS2 (protein)", "chain": "MSPQPDESVLSILGVPRPCVKKRSRNDAFVLTVLTCSLQAIAAPATAPGTTTTRVRQPYPHFRVIVLDDDVNTFQHVAECLLKYIPGMTGDRAWDLTNQVHYEGAATVWSGPQEQAELYHEQLRREGLTMAPLEAA"}}, "target": "polypeptides with a terminal leucine residue", "assay": "single-molecule dwell time analysis, distribution of mean pulse durations, Leu; filtered 0.00s≤dur≤20.00s and magnitude above baseline > 15.0", "data": [{"binder": "B1", "values": [{"measurement": "mean pulse duration (value at the dashed line)", "value": 0.35, "unit": "s"}]}]}
